Earlier results as cited in paper doi:10.1101/2023.01.13.523947.
pKd: −log10 of the molar value.

Tested on: 35I9 anti-DNA mAb (Mus musculus (NZWxNZB F1))

## dsDNA (cited Kd)
  pKd: 7.05

## ssDNA (cited Kd)
  pKd: 6.15
